Target: T1, soluble human GPC3 (human, UniProt P51654 25-563, limits assumed)
T1 construct: soluble human GPC3 as analyte; also called glypican 3
Experiment: SPR (Biacore), soluble human GPC3

T1 sequence (P51654 other isoform, or with tags, fused parts or gaps limits assumed, form in doubt): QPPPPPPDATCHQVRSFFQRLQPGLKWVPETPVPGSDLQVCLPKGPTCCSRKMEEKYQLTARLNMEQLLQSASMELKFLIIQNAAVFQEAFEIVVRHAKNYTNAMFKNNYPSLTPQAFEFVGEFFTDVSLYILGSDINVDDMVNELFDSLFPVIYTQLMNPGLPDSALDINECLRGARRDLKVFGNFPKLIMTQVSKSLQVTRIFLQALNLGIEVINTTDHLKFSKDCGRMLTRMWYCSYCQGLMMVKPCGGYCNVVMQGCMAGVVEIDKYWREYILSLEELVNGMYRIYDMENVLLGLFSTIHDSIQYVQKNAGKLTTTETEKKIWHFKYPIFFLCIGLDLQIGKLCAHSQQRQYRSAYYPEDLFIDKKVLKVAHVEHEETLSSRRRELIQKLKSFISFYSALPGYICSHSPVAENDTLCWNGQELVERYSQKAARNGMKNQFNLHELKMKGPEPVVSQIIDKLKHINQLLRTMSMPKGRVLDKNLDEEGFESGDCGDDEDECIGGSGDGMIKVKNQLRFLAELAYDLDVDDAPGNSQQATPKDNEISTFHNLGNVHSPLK

Row | Binder | Kd
1 | H0610-G1dh/none-Hi-Kn010G3/L0204-k0 (antibody, human IgG1, kappa, single-arm (one Fab)) heavy: not shown EPKSSDKTHTCPPCPAPELLGGPSVFLFPPKPKDTLMISRTPEVTCVVVDVSHEDPEVKFNWYVDGVEVHNAKTKPREEQYNSTYRVVSVLTVLHQDWLNGKEYKCKVSNKALPAPIEKTISKAKGQPREPQVCTLPPSRDELTKNQVSLWCLVKGFYPSDIAVEWESNGQPENNYKTTPPVLDSDGSFFLYSKLTVDKSRWQQGNVFSCSVMHEALHNRYTQKSLSLSP light: DIVMTQSPLSLPVTPGEPASISCRSSQSPVHSNRNTYLHWYQQKPGQAPRLLIYKVSNRFRGVPDRFSGSGSGTDFTLKISRVEAEDVGVYYCGQGTQVPYTFGQGTKLEIKRTVAAPSVFIFPPSDEQLKSGTASVVCLLNNFYPREAKVQWKVDNALQSGNSQESVTEQDSKDSTYSLSSTLTLSKADYEKHKVYACEVTHQGLSSPVTKSFNRGEC | 0.727 nM
2 | H0610-G1dh/none-Hi-Kn010G3/L0211-k0 (antibody, human IgG1, kappa, single-arm (one Fab)) heavy: not shown EPKSSDKTHTCPPCPAPELLGGPSVFLFPPKPKDTLMISRTPEVTCVVVDVSHEDPEVKFNWYVDGVEVHNAKTKPREEQYNSTYRVVSVLTVLHQDWLNGKEYKCKVSNKALPAPIEKTISKAKGQPREPQVCTLPPSRDELTKNQVSLWCLVKGFYPSDIAVEWESNGQPENNYKTTPPVLDSDGSFFLYSKLTVDKSRWQQGNVFSCSVMHEALHNRYTQKSLSLSP light: DIVMTQSPLSLPVTPGEPASISCRSSQPPVHSNRNTYLHWYQQKPGQAPRLLIYKVSNRFSGVPDRFSGSGSGTDFTLKISRVEAEDVGVYYCYQGTQVPYTFGQGTKLEIKRTVAAPSVFIFPPSDEQLKSGTASVVCLLNNFYPREAKVQWKVDNALQSGNSQESVTEQDSKDSTYSLSSTLTLSKADYEKHKVYACEVTHQGLSSPVTKSFNRGEC | 0.647 nM
3 | H0610-G1dh/none-Hi-Kn010G3/L0205-k0 (antibody, human IgG1, kappa, single-arm (one Fab)) heavy: not shown EPKSSDKTHTCPPCPAPELLGGPSVFLFPPKPKDTLMISRTPEVTCVVVDVSHEDPEVKFNWYVDGVEVHNAKTKPREEQYNSTYRVVSVLTVLHQDWLNGKEYKCKVSNKALPAPIEKTISKAKGQPREPQVCTLPPSRDELTKNQVSLWCLVKGFYPSDIAVEWESNGQPENNYKTTPPVLDSDGSFFLYSKLTVDKSRWQQGNVFSCSVMHEALHNRYTQKSLSLSP light: DIVMTQSPLSLPVTPGEPASISCRSSQSPVHSNRNTYLHWYQQKPGQAPRLLIYKVSNRFWGVPDRFSGSGSGTDFTLKISRVEAEDVGVYYCGQGTQVPYTFGQGTKLEIKRTVAAPSVFIFPPSDEQLKSGTASVVCLLNNFYPREAKVQWKVDNALQSGNSQESVTEQDSKDSTYSLSSTLTLSKADYEKHKVYACEVTHQGLSSPVTKSFNRGEC | 1.01 nM
4 | H0610-G1dh/none-Hi-Kn010G3/L0208-k0 (antibody, human IgG1, kappa, single-arm (one Fab)) heavy: not shown EPKSSDKTHTCPPCPAPELLGGPSVFLFPPKPKDTLMISRTPEVTCVVVDVSHEDPEVKFNWYVDGVEVHNAKTKPREEQYNSTYRVVSVLTVLHQDWLNGKEYKCKVSNKALPAPIEKTISKAKGQPREPQVCTLPPSRDELTKNQVSLWCLVKGFYPSDIAVEWESNGQPENNYKTTPPVLDSDGSFFLYSKLTVDKSRWQQGNVFSCSVMHEALHNRYTQKSLSLSP light: DIVMTQSPLSLPVTPGEPASISCRSSQSPVHSNRNTYLHWYQQKPGQAPRLLIYKVSNRFWGVPDRFSGSGSGTDFTLKISRVEAEDVGVYYCYQGTQVPYTFGQGTKLEIKRTVAAPSVFIFPPSDEQLKSGTASVVCLLNNFYPREAKVQWKVDNALQSGNSQESVTEQDSKDSTYSLSSTLTLSKADYEKHKVYACEVTHQGLSSPVTKSFNRGEC | 0.53 nM
5 | H0610-G1dh/none-Hi-Kn010G3/L0206-k0 (antibody, human IgG1, kappa, single-arm (one Fab)) heavy: not shown EPKSSDKTHTCPPCPAPELLGGPSVFLFPPKPKDTLMISRTPEVTCVVVDVSHEDPEVKFNWYVDGVEVHNAKTKPREEQYNSTYRVVSVLTVLHQDWLNGKEYKCKVSNKALPAPIEKTISKAKGQPREPQVCTLPPSRDELTKNQVSLWCLVKGFYPSDIAVEWESNGQPENNYKTTPPVLDSDGSFFLYSKLTVDKSRWQQGNVFSCSVMHEALHNRYTQKSLSLSP light: DIVMTQSPLSLPVTPGEPASISCRSSQSPVHSNRNTYLHWYQQKPGQAPRLLIYKVSNRFSGVPDRFSGSGSGTDFTLKISRVEAEDVGVYYCYQGTQVPYTFGQGTKLEIKRTVAAPSVFIFPPSDEQLKSGTASVVCLLNNFYPREAKVQWKVDNALQSGNSQESVTEQDSKDSTYSLSSTLTLSKADYEKHKVYACEVTHQGLSSPVTKSFNRGEC | 0.865 nM
6 | H0610-G1dh/none-Hi-Kn010G3/L0209-k0 (antibody, human IgG1, kappa, single-arm (one Fab)) heavy: not shown EPKSSDKTHTCPPCPAPELLGGPSVFLFPPKPKDTLMISRTPEVTCVVVDVSHEDPEVKFNWYVDGVEVHNAKTKPREEQYNSTYRVVSVLTVLHQDWLNGKEYKCKVSNKALPAPIEKTISKAKGQPREPQVCTLPPSRDELTKNQVSLWCLVKGFYPSDIAVEWESNGQPENNYKTTPPVLDSDGSFFLYSKLTVDKSRWQQGNVFSCSVMHEALHNRYTQKSLSLSP light: DIVMTQSPLSLPVTPGEPASISCRSSQSPVHSNRNTYIHWYQQKPGQAPRLLIYKVSNRFSGVPDRFSGSGSGTDFTLKISRVEAEDVGVYYCYQGTQVPYTFGQGTKLEIKRTVAAPSVFIFPPSDEQLKSGTASVVCLLNNFYPREAKVQWKVDNALQSGNSQESVTEQDSKDSTYSLSSTLTLSKADYEKHKVYACEVTHQGLSSPVTKSFNRGEC | 1.12 nM

The remaining lines, values ahead:

Row | Kd | Binder
7 | 1.79 nM | H0610-G1dh/none-Hi-Kn010G3/L0217-k0 (antibody, human IgG1, kappa, single-arm (one Fab)) heavy: not shown EPKSSDKTHTCPPCPAPELLGGPSVFLFPPKPKDTLMISRTPEVTCVVVDVSHEDPEVKFNWYVDGVEVHNAKTKPREEQYNSTYRVVSVLTVLHQDWLNGKEYKCKVSNKALPAPIEKTISKAKGQPREPQVCTLPPSRDELTKNQVSLWCLVKGFYPSDIAVEWESNGQPENNYKTTPPVLDSDGSFFLYSKLTVDKSRWQQGNVFSCSVMHEALHNRYTQKSLSLSP light: DIVMTQSPLSLPVTPGEPASISCRPSQSLVHSNRNTYLHWYQQKPGQAPRLLIYKVSNRFRGVPDRFSGSGSGTDFTLKISRVEAEDVGVYYCGQGTQVPYTFGQGTKLEIKRTVAAPSVFIFPPSDEQLKSGTASVVCLLNNFYPREAKVQWKVDNALQSGNSQESVTEQDSKDSTYSLSSTLTLSKADYEKHKVYACEVTHQGLSSPVTKSFNRGEC
8 | 1.86 nM | H0610-G1dh/none-Hi-Kn010G3/L0216-k0 (antibody, human IgG1, kappa, single-arm (one Fab)) heavy: not shown EPKSSDKTHTCPPCPAPELLGGPSVFLFPPKPKDTLMISRTPEVTCVVVDVSHEDPEVKFNWYVDGVEVHNAKTKPREEQYNSTYRVVSVLTVLHQDWLNGKEYKCKVSNKALPAPIEKTISKAKGQPREPQVCTLPPSRDELTKNQVSLWCLVKGFYPSDIAVEWESNGQPENNYKTTPPVLDSDGSFFLYSKLTVDKSRWQQGNVFSCSVMHEALHNRYTQKSLSLSP light: DIVMTQSPLSLPVTPGEPASISCRSSQPLVHSNRNTYLHWYQQKPGQAPRLLIYKVSNRFRGVPDRFSGSGSGTDFTLKISRVEAEDVGVYYCGQGTQVPYTFGQGTKLEIKRTVAAPSVFIFPPSDEQLKSGTASVVCLLNNFYPREAKVQWKVDNALQSGNSQESVTEQDSKDSTYSLSSTLTLSKADYEKHKVYACEVTHQGLSSPVTKSFNRGEC
9 | 0.657 nM | H0610-G1dh/none-Hi-Kn010G3/L0214-k0 (antibody, human IgG1, kappa, single-arm (one Fab)) heavy: not shown EPKSSDKTHTCPPCPAPELLGGPSVFLFPPKPKDTLMISRTPEVTCVVVDVSHEDPEVKFNWYVDGVEVHNAKTKPREEQYNSTYRVVSVLTVLHQDWLNGKEYKCKVSNKALPAPIEKTISKAKGQPREPQVCTLPPSRDELTKNQVSLWCLVKGFYPSDIAVEWESNGQPENNYKTTPPVLDSDGSFFLYSKLTVDKSRWQQGNVFSCSVMHEALHNRYTQKSLSLSP light: DIVMTQSPLSLPVTPGEPASISCRSSQPPVHSNRNTYLHWYQQKPGQAPRLLIYKVSNRFRGVPDRFSGSGSGTDFTLKISRVEAEDVGVYYCGQGTQVPYTFGQGTKLEIKRTVAAPSVFIFPPSDEQLKSGTASVVCLLNNFYPREAKVQWKVDNALQSGNSQESVTEQDSKDSTYSLSSTLTLSKADYEKHKVYACEVTHQGLSSPVTKSFNRGEC
10 | 1.25 nM | H0610-G1dh/none-Hi-Kn010G3/L0213-k0 (antibody, human IgG1, kappa, single-arm (one Fab)) heavy: not shown EPKSSDKTHTCPPCPAPELLGGPSVFLFPPKPKDTLMISRTPEVTCVVVDVSHEDPEVKFNWYVDGVEVHNAKTKPREEQYNSTYRVVSVLTVLHQDWLNGKEYKCKVSNKALPAPIEKTISKAKGQPREPQVCTLPPSRDELTKNQVSLWCLVKGFYPSDIAVEWESNGQPENNYKTTPPVLDSDGSFFLYSKLTVDKSRWQQGNVFSCSVMHEALHNRYTQKSLSLSP light: DIVMTQSPLSLPVTPGEPASISCRSSQSPVHSNRNTYIHWYQQKPGQAPRLLIYKVSNRFRGVPDRFSGSGSGTDFTLKISRVEAEDVGVYYCGQGTQVPYTFGQGTKLEIKRTVAAPSVFIFPPSDEQLKSGTASVVCLLNNFYPREAKVQWKVDNALQSGNSQESVTEQDSKDSTYSLSSTLTLSKADYEKHKVYACEVTHQGLSSPVTKSFNRGEC
11 | 1.64 nM | H0610-G1dh/none-Hi-Kn010G3/L0215-k0 (antibody, human IgG1, kappa, single-arm (one Fab)) heavy: not shown EPKSSDKTHTCPPCPAPELLGGPSVFLFPPKPKDTLMISRTPEVTCVVVDVSHEDPEVKFNWYVDGVEVHNAKTKPREEQYNSTYRVVSVLTVLHQDWLNGKEYKCKVSNKALPAPIEKTISKAKGQPREPQVCTLPPSRDELTKNQVSLWCLVKGFYPSDIAVEWESNGQPENNYKTTPPVLDSDGSFFLYSKLTVDKSRWQQGNVFSCSVMHEALHNRYTQKSLSLSP light: DIVMTQSPLSLPVTPGEPASISCRSSQPPVHSNRNTYIHWYQQKPGQAPRLLIYKVSNRFSGVPDRFSGSGSGTDFTLKISRVEAEDVGVYYCGQGTQVPYTFGQGTKLEIKRTVAAPSVFIFPPSDEQLKSGTASVVCLLNNFYPREAKVQWKVDNALQSGNSQESVTEQDSKDSTYSLSSTLTLSKADYEKHKVYACEVTHQGLSSPVTKSFNRGEC
12 | 0.994 nM | H0610-G1dh/none-Hi-Kn010G3/L0212-k0 (antibody, human IgG1, kappa, single-arm (one Fab)) heavy: not shown EPKSSDKTHTCPPCPAPELLGGPSVFLFPPKPKDTLMISRTPEVTCVVVDVSHEDPEVKFNWYVDGVEVHNAKTKPREEQYNSTYRVVSVLTVLHQDWLNGKEYKCKVSNKALPAPIEKTISKAKGQPREPQVCTLPPSRDELTKNQVSLWCLVKGFYPSDIAVEWESNGQPENNYKTTPPVLDSDGSFFLYSKLTVDKSRWQQGNVFSCSVMHEALHNRYTQKSLSLSP light: DIVMTQSPLSLPVTPGEPASISCRPSQSPVHSNRNTYLHWYQQKPGQAPRLLIYKVSNRFSGVPDRFSGSGSGTDFTLKISRVEAEDVGVYYCYQGTQVPYTFGQGTKLEIKRTVAAPSVFIFPPSDEQLKSGTASVVCLLNNFYPREAKVQWKVDNALQSGNSQESVTEQDSKDSTYSLSSTLTLSKADYEKHKVYACEVTHQGLSSPVTKSFNRGEC
13 | 1.99 nM | H0610-G1dh/none-Hi-Kn010G3/L0218-k0 (antibody, human IgG1, kappa, single-arm (one Fab)) heavy: not shown EPKSSDKTHTCPPCPAPELLGGPSVFLFPPKPKDTLMISRTPEVTCVVVDVSHEDPEVKFNWYVDGVEVHNAKTKPREEQYNSTYRVVSVLTVLHQDWLNGKEYKCKVSNKALPAPIEKTISKAKGQPREPQVCTLPPSRDELTKNQVSLWCLVKGFYPSDIAVEWESNGQPENNYKTTPPVLDSDGSFFLYSKLTVDKSRWQQGNVFSCSVMHEALHNRYTQKSLSLSP light: DIVMTQSPLSLPVTPGEPASISCRSSQSLVHSNRNTYLHWYQQKPGQAPRLLIYKVSNRFRGVPDRFSGSGSGTDFTLKISRVEAEDVGVYYCYQGTQVPYTFGQGTKLEIKRTVAAPSVFIFPPSDEQLKSGTASVVCLLNNFYPREAKVQWKVDNALQSGNSQESVTEQDSKDSTYSLSSTLTLSKADYEKHKVYACEVTHQGLSSPVTKSFNRGEC
